Assay results: article PMC3919607 (Nucleic Acids Research, 2013)

T1: His6-tagged WT Snu13p (co-expression) (S. cerevisiae, UniProt P39990 1-126)
T1 sequence (looked up): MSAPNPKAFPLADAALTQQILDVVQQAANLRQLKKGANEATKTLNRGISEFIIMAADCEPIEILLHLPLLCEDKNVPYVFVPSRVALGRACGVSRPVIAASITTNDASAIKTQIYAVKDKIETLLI

T2: His6Rsa1p230–381 (S. cerevisiae, UniProt Q08932 230-381)
T2 sequence (looked up): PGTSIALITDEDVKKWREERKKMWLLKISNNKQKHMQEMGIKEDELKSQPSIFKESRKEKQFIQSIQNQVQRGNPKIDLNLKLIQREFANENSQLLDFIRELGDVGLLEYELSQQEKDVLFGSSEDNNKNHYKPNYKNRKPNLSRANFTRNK

B1: full-length Rsa1p (co-expression) (natural protein, S. cerevisiae, UniProt Q08932 1-381, looked up)
chain: MNYNNFENSKGDGHSRLPKPTYSGTLSDGYDESKIKRQKTDSAFNAAYSPHMYPNSPYYEGSWNTGYTPQLHHVAPHNQYFHPIQPSTQYNYTSPPNYTENYIPPVHQNISYAPALNLQKWPSSYCENTQALKNDKDYQTSISYEDVAIPTVKEIQLIEKNRGKDTFMNEISPVPSSKDQASAEPTEIPRKDPELANSNAEDDHNNLGLEDDDRDEQLESEGLGKVVLVPGTSIALITDEDVKKWREERKKMWLLKISNNKQKHMQEMGIKEDELKSQPSIFKESRKEKQFIQSIQNQVQRGNPKIDLNLKLIQREFANENSQLLDFIRELGDVGLLEYELSQQEKDVLFGSSEDNNKNHYKPNYKNRKPNLSRANFTRNK
B2: Snu13p (recombinant, GST cleaved off) (natural protein, S. cerevisiae)
chain: GPMSAPNPKAFPLADAALTQQILDVVQQAANLRQLKKGANEATKTLNRGISEFIIMAADCEPIEILLHLPLLCEDKNVPYVFVPSRVALGRACGVSRPVIAASITTNDASAIKTQIYAVKDKIETLLI
B3: synthetic peptide Rsa1p238–259 (peptide, UniProt Q08932 238-259, looked up)
peptide: TDEDVKKWREERKKMWLLKISN

Tests used:
[1] = target: T1, His6-tagged WT Snu13p (co-expression); experiment: pull-down
His6Rsa1p230–381 = target: T2, His6Rsa1p230–381; experiment: native gel or EMSA
[2] = target: B2; experiment: ITC

Binder: B1
stoichiometry N [1]: ~1

Binder: B2
binding result (His6Rsa1p230–381): binds

Binder: B3
Kd [2]: 18 ± 1 µM
